Numbering of substitutions follows the chain as printed. In names and notes the source's numbering stands.
T1: Biotinylated human TIM3-Fc fusion from R&D systems (human, UniProt Q8TDQ0 22-200, biotinylated (site not stated))
T1 construct: Bought reagent; also called CD366; not shown: Fc part of the bought fusion
T1 sequence (looked up): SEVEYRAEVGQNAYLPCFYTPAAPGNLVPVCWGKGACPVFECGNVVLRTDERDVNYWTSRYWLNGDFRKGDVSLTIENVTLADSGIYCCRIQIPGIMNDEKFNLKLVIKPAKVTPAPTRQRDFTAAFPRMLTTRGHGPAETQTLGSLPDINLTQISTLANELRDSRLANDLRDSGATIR

B1: S88D variant of PD1B244 (antibody, V domains shown)
VH: QVQLVQSGAEVKKPGSSVKVSCKASGGTFSSYAISWVRQAPGQGLEWMGGIIPIFDTANYAQKFQGRVTITADESTSTAYMELSSLRDEDTAVYYCARPGLAAAYDTGSLDYWGQGTLVTVSS
VL: EIVLTQSPATLSLSPGERATLSCRASQSVRSYLAWYQQKPGQAPRLLIYDASNRATGIPARFSGSGSGTDFTLTISSLEPEDFAVYYCQQRNYWPLTFGQGTKVEIK
notes: Kabat position 84; also called PD1 S88D variant; PD1H170 S88D
B2: S84D variant of PD1B244 (antibody, V domains shown)
VH: B1 VH with S84D, D88S
VL: B1 VL
notes: Kabat position 82a; also called PD1 S84D variant; PD1H170 S84D
B3: S75D variant of PD1B244 (antibody, V domains shown)
VH: B1 VH with S75D, D88S
VL: B1 VL
notes: Kabat position 74; also called PD1 S75D variant; PD1H170 S75D
B4: A88D variant of TIMB337 (antibody, V domains shown)
VH: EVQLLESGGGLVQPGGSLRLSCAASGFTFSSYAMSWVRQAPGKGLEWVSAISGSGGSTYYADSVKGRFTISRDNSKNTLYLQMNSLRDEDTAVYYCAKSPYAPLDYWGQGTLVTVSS
VL: B1 VL with R30N, S31D, R91G, N92G, Y93H, W94A, L96I
notes: Kabat position 84; also called TIM3 A88D variant; TM3H24 A88D
B5: N84D variant of TIMB337 (antibody, V domains shown)
VH: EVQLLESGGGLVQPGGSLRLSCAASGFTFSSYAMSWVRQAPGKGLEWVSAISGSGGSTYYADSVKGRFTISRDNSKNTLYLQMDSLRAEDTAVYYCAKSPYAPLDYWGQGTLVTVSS
VL: B1 VL with R30N, S31D, R91G, N92G, Y93H, W94A, L96I
notes: Kabat position 82a; also called TIM3 N84D variant; TM3H24 N84D
B6: S75D variant of TIMB337 (antibody, V domains shown)
VH: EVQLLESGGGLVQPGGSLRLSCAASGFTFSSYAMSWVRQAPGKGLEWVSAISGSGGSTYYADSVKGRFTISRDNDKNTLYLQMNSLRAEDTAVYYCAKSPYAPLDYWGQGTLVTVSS
VL: B1 VL with R30N, S31D, R91G, N92G, Y93H, W94A, L96I
notes: Kabat position 74; also called TIM3 S75D variant; TM3H24 S75D

molecular target: T2, human PD1 antigen (human, UniProt Q15116 25-167, limits assumed); assay: Ag Binding column; PD1 SPR
T2 construct: Injected as analyte (100 nM-0.4 nM) in the ProteOn SPR assay; construct not described; also called CD279
T2 sequence (Q15116 25-167 limits assumed): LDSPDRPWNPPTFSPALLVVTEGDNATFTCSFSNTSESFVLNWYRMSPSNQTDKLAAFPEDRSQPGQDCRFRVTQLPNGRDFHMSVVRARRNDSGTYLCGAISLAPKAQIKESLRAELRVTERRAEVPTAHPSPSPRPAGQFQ

Binding result, binds:
B1
B2
B3

molecular target: T1, Biotinylated human TIM3-Fc fusion from …; assay: Ag Binding column; TIM3-Fc ELISA

Binding result, binds:
B4
B5
B6
